{"source": "patent US9822156B2", "about": "“Amyloid beta expression constructs and uses therefor” (Whitehead Institute for Biomedical Research, priority 2014, dated 2017)", "molecules": {"B1": {"name": "Arctic: yeast construct, four copies of Aβ42 E22G, SEQ ID NO:75 (protein)", "chain": "MRFPSIFTAVLFAASSALAAPVNTTTEDETAQIPAEAVIGYLDLEGDFDVAVLPFSNSTNNGLLFINTTIASIAAKEEGVSLDKREAEADAEFRHDSGYEVHHQKLVFFAGDVGSNKGAIIGLMVGGVVIAKREAEAEADAEFRHDSGYEVHHQKLVFFAGDVGSNKGAIIGLMVGGVVIAKREADAEADAEFRHDSGYEVHHQKLVFFAGDVGSNKGAIIGLMVGGVVIAKREADAEADAEFRHDSGYEVHHQKLVFFAGDVGSNKGAIIGLMVGGVVIA"}, "B2": {"name": "Arctic_I31E: yeast construct, four copies of Aβ42 E22G/I31E, SEQ ID NO:77 (protein)", "chain": "B1 chain with I120E, I170E, I220E, I270E"}, "B3": {"name": "Dutch: yeast construct, four copies of Aβ42 E22Q, SEQ ID NO:71 (protein)", "chain": "B1 chain with G111Q, G161Q, G211Q, G261Q"}, "B4": {"name": "E22_deletion: yeast construct, four copies of Aβ42 with E22 deleted, SEQ ID NO:79 (protein)", "chain": "MRFPSIFTAVLFAASSALAAPVNTTTEDETAQIPAEAVIGYLDLEGDFDVAVLPFSNSTNNGLLFINTTIASIAAKEEGVSLDKREAEADAEFRHDSGYEVHHQKLVFFADVGSNKGAIIGLMVGGVVIAKREAEAEADAEFRHDSGYEVHHQKLVFFADVGSNKGAIIGLMVGGVVIAKREADAEADAEFRHDSGYEVHHQKLVFFADVGSNKGAIIGLMVGGVVIAKREADAEADAEFRHDSGYEVHHQKLVFFADVGSNKGAIIGLMVGGVVIA"}, "B5": {"name": "Aβ42_Arctic (E22G): lentiviral construct, insulin signal peptide fused to Aβ42 E22G, SEQ ID NO:17 (protein)", "chain": "MALWMRLLPLLALLALWGPDPAAADAEFRHDSGYEVHHQKLVFFAGDVGSNKGAIIGLMVGGVVIA"}, "B6": {"name": "Aβ42_Arc/I31E: lentiviral construct, insulin signal peptide fused to Aβ42 E22G/I31E, SEQ ID NO:23 (protein)", "chain": "B5 chain with I55E"}}, "key": {"[1]": {"test_system": "293T cells", "assay": "TOXILIGHT cytotoxicity assay in stable doxycycline-inducible poly-Aβ 293T cell lines", "assay_type": "cell-based", "conditions": "72-96 hours following doxycycline induction", "from_the_text": "Similar to the poly-Aβ (Aβ40 or Aβ42_1X/4X/6X/8X) expression constructs in yeast (see Example 1), a poly-Aβ toxicity model was developed in mammalian cells. Stable cell lines with chromosomally-integrated tetracycline (doxycycline)-inducible […] transgenes (Aβ42-4X, Aβ42-6X, Aβ40-4X, Aβ40-6X and Aβ42-Arctic-4X) linked to an N-terminal insulin signal peptide were generated (FIGS. 13A-13B). These expression constructs were generated using the pLix402 lentiviral plasmid (FIG. 12). The poly-Aβ constructs were individually transfected into 293T cells along with the lentiviral packaging plasmid psPAX and the viral envelope-expressing plasmid mMD2.G using LIPOFECTAMINE® 2000 (Invitrogen) transfection reagent to generate lentivirus containing the poly-Aβ transgene. The virus was harvested from the supernatant of transfected 293T cells 2 and 3 days post-transfection and subsequently purified and concentrated using the LENTI-X™ Maxi Purification kit (Clontech) according to the manufacturer's instructions.\nTo generate stable cells harboring the expression transgene for the poly-Aβ constructs, 293T cells were infected using POLYBRENE® infection reagent (Sigma Aldrich), which is used to introduce retroviral vectors into mammalian cells. Infected cells were then selected using puromycin (2-10 μg/ml). Infected cells harboring the transgene survive this selection pressure whereas the control cells without the transgene die in 2-3 days. Aliquots of the selected cells were frozen in liquid nitrogen or maintained and propagated for further applications.\nExpression of Aβ peptide from these stable cell lines was measured in the culture supernatant 72-96 hours following doxycycline induction (FIG. 13D). Toxicity was measured 72-96 hours following doxycycline induction using a TOXILIGHT™ cytotoxicity assay (Lonza) as described in Example 2."}, "[2]": {"test_system": "Yeast cells", "assay": "Yeast growth spotting assay of Aβ expression constructs on glucose or galactose media", "assay_type": "cell-based", "conditions": "galactose-induced expression from 2μ high-copy plasmid pAG425Gal", "from_the_text": "The Aβ sequence was codon optimized for expression in yeast. The Aβ expression construct consists of attB Gateway flanking regions at the 5′ and 3′ ends (nucleotides […] (SEQ ID NO:84) and […] (SEQ ID NO:85), respectively) for Gateway cloning of MatαPrepro-Aβ42 sequence. The entire construct was synthesized into pUC57-Kan plasmid and cloned into the Gateway entry vector pDONR221. These constructs were then transferred into the pAG425Galexpression vector by Gateway LR cloning (Alberti et al., “A suite of Gateway cloning vectors for high throughput genetic analysis in Saccharomyces cerevisiae,” Yeast 24:913 (2007)). The GAL1 promoter enables expression of Aβ fusion transgenes under galactose-inducible conditions. The vector has an ampicillin resistant gene for amplification of the vector in E. coli and leucine auxotrophic marker (LEU2) for selection of transformed yeast cells on media lacking leucine (FIG. 2).\nYeast cells transformed with either an expression vector containing galactose-inducible green fluorescent protein (GFP) or a galactose-inducible expression plasmid encoding a yeast mating factor alpha signal sequence/human amyloid beta 1-42 (Aβ42) or 1-40 (Aβ40) or scrambled Aβ42 fusion polypeptide were grown on glucose or galactose containing synthetic media and growth was assessed. Transformed cells were selected in medium lacking leucine. Individual transformants were grown overnight in complete synthetic medium (CSM) lacking leucine with 2% raffinose as the carbon source. Cell concentrations (OD600) were adjusted in a 96-well plate to OD 0.5 or 1. Cells were then 5-fold serially diluted and spotted on SD media containing glucose (uninduced) and galactose (induced). Plates were incubated at 30° C. for 2 days (glucose) or 3 to 4 days (galactose)."}, "[3]": {"test_system": "Rat embryonic cortical neurons", "assay": "[…] ATP viability assay in neurons infected with lentiviral poly-Aβ constructs", "assay_type": "cell-based", "conditions": "three weeks post doxycycline-induction (2 μg/ml)", "from_the_text": "Rat embryonic cortical neurons were infected with lentiviral poly-Aβ expression constructs to model poly-Aβ toxicity. Tetracycline (doxycycline)-inducible poly-Aβ (Aβ42-4X, Aβ42-6X, Aβ40-4X, Aβ40-6X, and Aβ42-Arctic-4X) viral constructs described in Example 5 were used to express poly-Aβ constructs in rat cortical neurons. In each expression construct, the poly-Aβ coding sequence is linked to an N-terminal insulin signal peptide. The poly-Aβ expression plasmids were packaged in lentiviral particles, which were generated by 293T cells as described in Example 3.\nRat cortical neurons were enriched from cortices dissected out of embryonic (E18) rat brains and enriched in adherent monolayer culture as described in Example 3. Purified lentiviral preparations at different MOI were used to infect these cortical neurons to express poly-Aβ transgenes. Three days post-infection, expression of poly-Aβ was induced by adding doxycycline (2 μg/ml) to the infected cultures."}, "[4]": {"test_system": "Rat embryonic cortical neurons", "conditions": "lentiviral infection, synapsin promoter, secretory pathway expression", "from_the_text": "Rat embryonic cortical neurons were used for expressing Aβ. For generating lentiviral constructs, an expression vector was used with the human synapsin 1 promoter upstream of the inserted insulin signal peptide-Aβ fusion polypeptide transgene (FIG. 9). The encoded fusion polypeptide is processed in the secretory pathway of the neuron, releasing Aβ in the extracellular milieu.\nThe pLV-Aβ constructs along with the psPAX2 packaging vector and pMD2.G envelope vector were transfected in 293T cells using LIPOFECTAMINE® 2000 (Invitrogen) transfection reagent following the manufacture's instruction to generate lentivirus containing the Aβ transgene. The virus was purified using LENTI-X™ Maxi Purification Kit (Clontech) from the supernatant of the transfected 293T cells according to the protocol provided by the manufacturer. Viral titer were determined by using Lentivirus-Associated p24 ELISA Kit (Cell BioLabs).\nRat embryonic cortices were dissected out of embryonic (E18) rat brains, and neurons were enriched in adherent monolayer culture. These cortical neurons were infected with lentiviral preparation harboring an Aβ transgene or a control gene (RFP in the same vector backbone). Infected cultures were harvested to quantify the amount of Aβ in the supernatant and cell lysate by Aβ-specific ELISA 21 days after infection (FIG. 10A). Corresponding cytotoxicity of the infected neurons was measured by quantifying ATP levels using […]™ assay for cell viability (Lonza)."}, "[5]": {"test_system": "Rat cortical neurons", "assay": "Fluorescence microscopy of neuronal survival and morphology after lentiviral Aβ infection (GFP live imaging, Map2 staining)", "assay_type": "cell-based", "conditions": "for neuronal survival and morphology, GFP live neuron imaging: 21 days after initial infection, identical MOI; for neuronal survival and morphology, Map2 immunostaining: twenty-one days post-infection", "method": "Rat cortical neurons were infected with a doxycycline-inducible lentiviral GFP construct. Two days post-infection, the cells were infected again with neuron-specific (synapsin promoter) lentiviral Aβ constructs (i.e., Aβ40, Aβ42, and various mutations). The doubly-infected cells were treated with doxycycline 7 days post-infection to express GFP. After 21 days of the initial infection, live neurons were visualized using fluorescence microscopy to observe the effect of different Aβ variants on neuronal survival and morphology by visualizing neurons expressing GFP in presence of Aβ expressed from the transgenes.\nSimilar observations were also made by immunohistochemical analysis of rat cortical neurons infected with neuron-specific (synapsin promoter) lentiviral Aβ constructs. Twenty-one days post-infection, the neurons were stained with a neuron-specific microtubule-associated protein 2 (Map2) primary antibody (rabbit polyclonal, Millipore) and ALEXA FLUOR® (red fluorophore conjugated) secondary antibody (goat anti-rabbit polyclonal, Life Technologies). Neuronal cells and morphology were visualized to observe the effect of different Aβ mutations using fluorescence microscopy."}}, "note": "Changes are numbered by the printed parent chain. In names and notes the source's numbering stands."}
{"molecule": "AB40-6X: doxycycline-inducible construct, insulin signal peptide and six copies of Aβ40, SEQ ID NO:43", "values": [{"measurement": "Aβ peptide-mediated cytotoxic effect (adenylate kinase release), rank order", "setting": "[1]", "value": "Aβ42-6X≧Aβ42-Arctic-4X≧Aβ42-4X≧AB40-6X≧Aβ40-4X"}]}
{"molecule": "Aβ40-4X: doxycycline-inducible construct, insulin signal peptide and four copies of Aβ40, SEQ ID NO:41", "values": [{"measurement": "Aβ peptide-mediated cytotoxic effect (adenylate kinase release), rank order", "setting": "[1]", "value": "Aβ42-6X≧Aβ42-Arctic-4X≧Aβ42-4X≧AB40-6X≧Aβ40-4X"}]}
{"molecule": "Aβ42 (1X): yeast expression construct, mating factor alpha prepro sequence with one copy of Aβ42, SEQ ID NO:51", "values": [{"measurement": "toxicity (inhibition of yeast cell growth) upon expression", "setting": "[2]", "value": "not toxic"}]}
{"molecule": "Aβ42-4X: doxycycline-inducible construct, insulin signal peptide and four copies of Aβ42, SEQ ID NO:35", "values": [{"measurement": "Aβ peptide-mediated cytotoxic effect (adenylate kinase release), rank order", "setting": "[1]", "value": "Aβ42-6X≧Aβ42-Arctic-4X≧Aβ42-4X≧AB40-6X≧Aβ40-4X"}, {"measurement": "cytotoxicity (viability by ATP levels)", "setting": "[3]", "value": "profound cytotoxicity compared to Aβ40-4X"}]}
{"molecule": "Aβ42-6X: doxycycline-inducible construct, insulin signal peptide and six copies of Aβ42, SEQ ID NO:39", "values": [{"measurement": "Aβ peptide-mediated cytotoxic effect (adenylate kinase release), rank order", "setting": "[1]", "value": "Aβ42-6X≧Aβ42-Arctic-4X≧Aβ42-4X≧AB40-6X≧Aβ40-4X"}]}
{"molecule": "Aβ42_I31E: lentiviral construct, insulin signal peptide fused to Aβ42 I31E, SEQ ID NO:21", "values": [{"measurement": "cytotoxicity (ATP levels)", "setting": "[4]", "value": "less cytotoxic effects compared to either the wild-type human Aβ42 or the Arctic variation of human Aβ42"}, {"measurement": "neuronal survival and morphology, GFP live neuron imaging", "setting": "[5]", "value": "reduced cytotoxicity and no significant morphological distortions of the neurons and neurites"}, {"measurement": "neuronal survival and morphology, Map2 immunostaining", "setting": "[5]", "value": "reduced cytotoxicity and had no significant effects on the neuronal morphology"}]}
{"molecule": "B1", "values": [{"measurement": "toxicity (inhibition of yeast cell growth) upon expression", "setting": "[2]", "value": "profound toxicity"}]}
{"molecule": "B2", "values": [{"measurement": "toxicity (inhibition of yeast cell growth) upon expression", "setting": "[2]", "value": "significantly lower amount of toxicity"}]}
{"molecule": "B3", "values": [{"measurement": "toxicity (inhibition of yeast cell growth) upon expression", "setting": "[2]", "value": "profound toxicity"}]}
{"molecule": "B4", "values": [{"measurement": "toxicity (inhibition of yeast cell growth) upon expression", "setting": "[2]", "value": "profound toxicity"}]}
{"molecule": "B5", "values": [{"measurement": "cytotoxicity (ATP levels)", "setting": "[4]", "value": "more toxic effect compared to the wild-type human Aβ42"}, {"measurement": "neuronal survival and morphology, GFP live neuron imaging", "setting": "[5]", "value": "caused neuronal death and adversely affected neurite outgrowth and structures"}, {"measurement": "neuronal survival and morphology, Map2 immunostaining", "setting": "[5]", "value": "profound cytotoxicity, resulting in massive neuronal loss and distorted neurite structures and outgrowth"}]}
{"molecule": "B6", "values": [{"measurement": "cytotoxicity (ATP levels)", "setting": "[4]", "value": "less cytotoxic effects compared to either the wild-type human Aβ42 or the Arctic variation of human Aβ42"}, {"measurement": "neuronal survival and morphology, GFP live neuron imaging", "setting": "[5]", "value": "reduced cytotoxicity and no significant morphological distortions of the neurons and neurites"}, {"measurement": "neuronal survival and morphology, Map2 immunostaining", "setting": "[5]", "value": "reduced cytotoxicity and had no significant effects on the neuronal morphology"}]}
